Laboratory results as given in publication PMC8532158.

Legend:
Assay in all cases: yeast surface display affinity sorting with deep sequencing (deep mutational scanning); BPTI single and double mutant library on yeast, sorted by FACS into four affinity gates (HI, WT, SL, LO) for each protease; NGS enrichments converted into ΔΔG_bind by a normalization formula fitted on ΔΔG_bind values of purified proteins
[1] = target: BPTI A16S displayed on the yeast surface (bovine)
[2] = target: BPTI K15A displayed on the yeast surface (bovine)
[3] = target: BPTI K15R displayed on the yeast surface (bovine)

Substance: bovine trypsin (enzyme)
- ΔΔG bind against BPTI WT [1]: 4.5 kcal/mol
- ΔΔG bind against BPTI WT [2]: 11.1 kcal/mol
- ΔΔG bind against BPTI WT [3]: -1.4 kcal/mol
